Laboratory results taken from PMC8087810, “Interfacing aptamers, nanoparticles and graphene in a hierarchical structure for highly selective detection of biomolecules in OECT devices”.

Biological target: alpha-thrombin (UniProt P00734;P00734 328-363;364-622)
Experiment: OECT aptasensor (sigmoidal fit of delta ratio, EC50); EC50 of sensor response, 1-100 pM thrombin, Tris buffer; LoD 5.000±0.087 pM; surface-immobilized aptamer; Thrombin: Tris buffer (composition not in material); BSA: PBS (137 mM NaCl, 2.7 mM KCl, 10 mM Na2HPO4, 1.8 mM KH2PO4), pH 7.4 (Tris stated as same pH); BSA and

B1: TBA15 (thrombin binding aptamer, Fc/SH modified) (structured_DNA)
DNA: GGTTGGTGTGGTTGG
modifications: 5' ferrocene; 3' C6-SH thiol, immobilized on AuNPs-PMLG gate electrode, MCH blocked
  apparent K (half saturation): 0.0489 nM
